The target of data set [1] is T1, TIA-1 RRM23K (UniProt P31483-2 93-274).
T1 sequence: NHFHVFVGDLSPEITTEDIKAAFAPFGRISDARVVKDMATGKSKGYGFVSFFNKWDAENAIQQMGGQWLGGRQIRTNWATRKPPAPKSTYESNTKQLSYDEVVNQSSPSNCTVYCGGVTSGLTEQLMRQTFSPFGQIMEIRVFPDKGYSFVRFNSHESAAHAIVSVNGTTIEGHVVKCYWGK
Description: fluorescence anisotropy.

Data set [2] deals with T2, TIA-1 RRM23L (UniProt P31483-2 80-292).
T2 sequence: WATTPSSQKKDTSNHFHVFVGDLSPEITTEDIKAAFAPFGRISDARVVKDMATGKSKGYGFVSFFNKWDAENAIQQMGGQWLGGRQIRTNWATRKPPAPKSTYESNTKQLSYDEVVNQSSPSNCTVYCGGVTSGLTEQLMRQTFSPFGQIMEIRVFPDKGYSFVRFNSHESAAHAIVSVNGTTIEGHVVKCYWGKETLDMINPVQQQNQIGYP
Description: NMR.

Data set [3] concerns the target T1, TIA-1 RRM23K. Description: ITC.
The next data set addresses T3, TIA-1 RRM2S (UniProt P31483-2 95-184).
T3 sequence: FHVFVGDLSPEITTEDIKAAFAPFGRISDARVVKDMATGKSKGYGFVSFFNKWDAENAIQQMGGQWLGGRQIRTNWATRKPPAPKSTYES
Nature of the data set: NMR.

The target in a further data set is T4, TIA-1 RRM23S (UniProt P31483-2 94-272).
T4 sequence: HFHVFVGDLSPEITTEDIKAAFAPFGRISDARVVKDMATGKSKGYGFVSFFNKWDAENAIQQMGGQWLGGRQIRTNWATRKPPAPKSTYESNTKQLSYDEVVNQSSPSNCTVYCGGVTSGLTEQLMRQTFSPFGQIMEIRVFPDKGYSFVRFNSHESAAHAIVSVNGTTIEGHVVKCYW
Description: fluorescence anisotropy.

The target of data set [4] is T2, TIA-1 RRM23L. Description: fluorescence anisotropy.
A further data set has as its target T5, TIA-1 RRM2L (UniProt P31483-2 80-188).
T5 sequence: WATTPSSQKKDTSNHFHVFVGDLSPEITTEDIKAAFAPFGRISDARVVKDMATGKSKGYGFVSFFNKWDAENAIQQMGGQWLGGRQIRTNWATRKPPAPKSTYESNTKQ
Description: fluorescence anisotropy.

The target in data set [5] is T2, TIA-1 RRM23L. Description: NMR. The source holds these as a separate data set.

Where two headings read alike, the source gives them in different places.

As to ACTCCTTTTT (ssDNA) [CT-rich DNA], the Kd with TIA-1 RRM23K [1] turned out to be 30 ± 3 nM.
Regarding TTTTTACTCC (ssDNA, 5' thiol C6 coupled to PROXYL) [PROXYL TC-rich DNA], in the data set with TIA-1 RRM23L [2], the binding result is reported as “binds”.
ACUCCUUUUU (ssRNA) [CU-rich RNA (unlabeled)] gave a Kd with TIA-1 RRM23K [3] of 70 ± 3 nM.
Consider TTTTT (ssDNA) [TTTTT DNA], for which, in the data set with TIA-1 RRM2S, the binding result is on record as “binds”.
In the case of ACUCCUUUUU (ssRNA) [CU-rich RNA], the Kd with TIA-1 RRM23S came out at 6600 ± 700 nM; in the data set with TIA-1 RRM23K [1] it was 130 ± 10 nM; with TIA-1 RRM23L [4], 130 ± 7 nM; with TIA-1 RRM2L it was 9100 ± 2000 nM.
Turning to TTTTTACTCC (ssDNA) [TC-rich DNA], in the data set with TIA-1 RRM23K [1], the Kd was found to be 8 ± 1 nM.
In the data set with TIA-1 RRM23K [3], UUUUUACUCC (ssRNA) [UC-rich RNA (unlabeled)] had a Kd of 12 ± 2 nM.
Consider TTTTTACTCC (ssDNA, 5' thiol C6 S-S) [5'thiol TC-rich DNA], for which, in the data set with TIA-1 RRM23L [5], the binding result is “binds”.
As to UUUUUACUCC (ssRNA) [UC-rich RNA], binding with TIA-1 RRM23K [1] was characterised by a dissociation constant (Kd) of 5 ± 0.3 nM.

The values above are taken from publication PMC5416816.
